Data published in doi:10.1101/2020.06.17.153486 (bioRxiv, 2020).

Biological target: SARS-CoV-2 RBD fused with SD1 (SARS-CoV-2, Wuhan-Hu-1 type, UniProt P0DTC2)
Test: ELISA

B1: mAb 2-4 (antibody, V domains shown)
VH: QVQLVQSGAEVKKPGASVKVSCKASGYTFTGYYMHWVRQAPGQGLEWMGWINPNSGGTNYTQMFQGRVTMTRDTSISTAYMEVSRLRSDDTAVYYCARDRSWAVVYYYMDVWGKGTTVTVSS
VL: QSALTQPPSASGSPGQSVTISCTGTSSDVGGYNYVSWYQQHPGKAPKLMIYEVSKRPSGVPDRFSGSKSGNTASLTVSGLQAEDEADYYCSSYAGSNNLVFGGGTKLTVL
  binding result: binds
